Literature values, collected in publication PMC7365847.
Where two headings read alike, the source gives them in different places.

Columns and labels:
[1] = molecular target: IL-18BP (Homo sapiens) (UniProt O95998)
[2] = molecular target: IL-1β (Homo sapiens) (UniProt P01584)
[3] = molecular target: IL-1Ra (Homo sapiens) (UniProt P18510)
[4] = molecular target: IL-1β (Homo sapiens) (UniProt P01584); remark: listed apart in the source

IL-1β (Homo sapiens), sequence (P01584 117-269): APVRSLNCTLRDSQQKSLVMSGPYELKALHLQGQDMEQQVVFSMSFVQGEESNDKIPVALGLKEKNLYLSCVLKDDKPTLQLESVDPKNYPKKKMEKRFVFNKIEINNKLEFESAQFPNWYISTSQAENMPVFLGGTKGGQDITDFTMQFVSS
sIL-1R2/sIL-1R3 complex, sequence (P27930 14-398): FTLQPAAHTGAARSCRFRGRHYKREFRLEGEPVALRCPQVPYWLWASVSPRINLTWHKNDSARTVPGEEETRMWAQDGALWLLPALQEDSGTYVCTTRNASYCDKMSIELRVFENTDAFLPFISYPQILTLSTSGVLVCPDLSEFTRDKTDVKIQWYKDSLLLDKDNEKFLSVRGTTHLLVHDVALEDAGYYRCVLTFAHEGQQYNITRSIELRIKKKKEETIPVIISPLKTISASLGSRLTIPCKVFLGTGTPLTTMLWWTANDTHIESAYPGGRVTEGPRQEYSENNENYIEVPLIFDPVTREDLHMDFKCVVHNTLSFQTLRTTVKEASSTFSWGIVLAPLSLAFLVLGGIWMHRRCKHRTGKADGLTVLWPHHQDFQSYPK
sIL-1R2/sIL-1R3 complex, sequence (Q9NPH3 21-570, further chain): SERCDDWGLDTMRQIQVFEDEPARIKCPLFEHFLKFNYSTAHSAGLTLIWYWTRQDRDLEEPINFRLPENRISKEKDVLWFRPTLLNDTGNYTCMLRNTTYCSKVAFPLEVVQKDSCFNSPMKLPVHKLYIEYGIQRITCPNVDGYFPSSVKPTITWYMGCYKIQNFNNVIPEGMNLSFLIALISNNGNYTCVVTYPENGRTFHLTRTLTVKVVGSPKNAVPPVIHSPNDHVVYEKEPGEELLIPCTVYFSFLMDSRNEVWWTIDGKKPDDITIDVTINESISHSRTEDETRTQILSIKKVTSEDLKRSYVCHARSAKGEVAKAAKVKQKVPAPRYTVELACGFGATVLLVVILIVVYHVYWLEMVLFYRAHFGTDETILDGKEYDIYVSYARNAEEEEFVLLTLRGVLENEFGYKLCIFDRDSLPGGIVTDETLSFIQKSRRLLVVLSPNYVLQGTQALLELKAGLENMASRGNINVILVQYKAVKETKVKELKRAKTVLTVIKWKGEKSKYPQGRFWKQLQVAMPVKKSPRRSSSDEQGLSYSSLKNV
IL-1Ra (Homo sapiens), sequence (P18510 26-177): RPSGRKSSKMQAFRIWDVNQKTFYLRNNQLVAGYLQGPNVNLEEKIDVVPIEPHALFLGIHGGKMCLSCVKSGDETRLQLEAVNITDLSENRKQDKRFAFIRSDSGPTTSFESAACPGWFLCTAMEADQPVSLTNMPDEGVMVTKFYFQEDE
IL-18, sequence (Q14116 37-193): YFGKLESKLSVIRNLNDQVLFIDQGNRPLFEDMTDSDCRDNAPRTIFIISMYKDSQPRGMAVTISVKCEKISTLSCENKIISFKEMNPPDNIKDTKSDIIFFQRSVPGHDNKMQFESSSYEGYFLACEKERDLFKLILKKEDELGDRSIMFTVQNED
IL-18BP (Homo sapiens), sequence (O95998 31-194): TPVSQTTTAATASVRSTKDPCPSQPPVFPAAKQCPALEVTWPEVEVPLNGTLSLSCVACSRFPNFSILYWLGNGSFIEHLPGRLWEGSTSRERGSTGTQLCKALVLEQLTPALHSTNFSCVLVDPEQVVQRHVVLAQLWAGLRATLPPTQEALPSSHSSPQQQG

Substance: IL-18 (from UniProt Q14116)
- Kd [1]: 0.4 nM

Substance: sIL-1R2 (from UniProt P27930)
- Kd [2]: 2.7 nM
- Kd [3]: 25000 nM

Substance: sIL-1R2/sIL-1R3 complex (from UniProt P27930)
- Kd [4]: 0.0056 nM
